# Measurements as given in the supplement of paper PMC10567573.
# B1: ANKRD40 (parent)
# chain: VRIQNPSLRENDFIEIELDRQELT
# Variants of: B1
# Experiment: protein stability index of a GFP-peptide fusion (GPS, HEK-293T) (PSI 1-6); higher = more stable
# Settings: c terminus: a fixed tail appended
# 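Note: lentivirally expressed fusions sorted by FACS into six bins by GFP to DsRed ratio, PSI derived from sequencing read proportions per bin multiplied by bin number.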
row,Variant,protein stability index
1,VRIQNPSLRENDFIENELDRQELT [I16N],5.11
2,VRIQNPSLRENDFIEAELDRQELT [I16A],4.19
3,VRIQNPSLRENDFIEGELDRQELT [I16G],4.55
4,VRIQNPSLRENDFIEKELDRQELT [I16K],4.69
5,VRIQNPSLRENDFIETELDRQELT [I16T],4.44
6,VRIQNPSLRENDFIELELDRQELT [I16L],2.65
7,VRIQNPSLRENDFIEEELDRQELT [I16E],4.8
8,VRIQNPSLRENDFIEWELDRQELT [I16W],2.89
9,VRIQNPSLRENDFIEFELDRQELT [I16F],2.83
10,VRIQNPSLRENDFIEPELDRQELT [I16P],4.67
11,VRIQNPSLRENDFIEMELDRQELT [I16M],3.49
12,VRIQNPSLRENDFIERELDRQELT [I16R],4.75
13,VRIQNPSLRENDFIEVELDRQELT [I16V],3.49
14,VRIQNPSLRENDFIESELDRQELT [I16S],4.47
15,VRIQNPSLRENDFIEDELDRQELT [I16D],5
16,VRIQNPSLRENDFIEHELDRQELT [I16H],4.59
17,VRIQNPSLRENDFIECELDRQELT [I16C],4.09
18,VRIQNPSLRENDFIEYELDRQELT [I16Y],3.15
19,VRIQNPSLRENDFDEIELDRQELT [I14D],5.22
20,VRIQNPSLRENDFHEIELDRQELT [I14H],4.66
21,VRIQNPSLRENDFMEIELDRQELT [I14M],3.34
22,VRIQNPSLRENDFKEIELDRQELT [I14K],4.47
23,VRIQNPSLRENDFYEIELDRQELT [I14Y],3.73
24,VRIQNPSLRENDFGEIELDRQELT [I14G],3.87

row,Variant,protein stability index
1,VRIQNPSLRENDFNEIELDRQELT [I14N],4.85
2,VRIQNPSLRENDFVEIELDRQELT [I14V],3.1
3,VRIQNPSLRENDFWEIELDRQELT [I14W],2.49
4,VRIQNPSLRENDFCEIELDRQELT [I14C],3.43
5,VRIQNPSLRENDFFEIELDRQELT [I14F],2.87
6,VRIQNPSLRENDFQEIELDRQELT [I14Q],4.31
7,VRIQNPSLRENDFSEIELDRQELT [I14S],4.42
8,VRIQNPSLRENDFPEIELDRQELT [I14P],4.27
9,VRIQNPSLRENDFEEIELDRQELT [I14E],4.92
10,VRIQNPSLRENDFREIELDRQELT [I14R],4.34
11,VRIQNPSLRENDFTEIELDRQELT [I14T],3.88
12,VRIQNPSLRENDFAEIELDRQELT [I14A],4
13,VRIQNPSLRENDFLEIELDRQELT [I14L],3
14,VRIQNPSLRENDFIEIEMDRQELT [L18M],3.3
15,VRIQNPSLRENDFIEIEVDRQELT [L18V],2.85
16,VRIQNPSLRENDFIEIEPDRQELT [L18P],4.35
17,VRIQNPSLRENDFIEIENDRQELT [L18N],4.72
18,VRIQNPSLRENDFIEIEIDRQELT [L18I],2.01
19,VRIQNPSLRENDFIEIECDRQELT [L18C],3.61
20,VRIQNPSLRENDFIEIEFDRQELT [L18F],2.12
21,VRIQNPSLRENDFIEIEKDRQELT [L18K],4.62
22,VRIQNPSLRENDFIEIERDRQELT [L18R],4.37
23,VRIQNPSLRENDFIEIEEDRQELT [L18E],5.04
24,VRIQNPSLRENDFIEIEHDRQELT [L18H],4.48

row,Variant,protein stability index
1,VRIQNPSLRENDFIEIEDDRQELT [L18D],4.8
2,VRIQNPSLRENDFIEIEADRQELT [L18A],4.2
3,VRIQNPSLRENDFIEIESDRQELT [L18S],4.81
4,VRIQNPSLRENDFIEIEGDRQELT [L18G],4.38
5,VRIQNPSLRENDFIEIEWDRQELT [L18W],1.82
6,VRIQNPSLRENDFIEIETDRQELT [L18T],4.51
7,VRIQNPSLRENDFIEIEYDRQELT [L18Y],3.03
8,VRIQNPSLRENDFIEIEQDRQELT [L18Q],4.7
9,VRIQNPSLRENDFINIELDRQELT [E15N],3.29
10,VRIQNPSLRENDFICIELDRQELT [E15C],1.87
11,VRIQNPSLRENDFIMIELDRQELT [E15M],1.95
12,VRIQNPSLRENDFIGIELDRQELT [E15G],3.02
13,VRIQNPSLRENDFIWIELDRQELT [E15W],1.97
14,VRIQNPSLRENDFIKIELDRQELT [E15K],2.47
15,VRIQNPSLRENDFIFIELDRQELT [E15F],1.82
16,VRIQNPSLRENDFIVIELDRQELT [E15V],1.89
17,VRIQNPSLRENDFIRIELDRQELT [E15R],2.13
18,VRIQNPSLRENDFIQIELDRQELT [E15Q],2.18
19,VRIQNPSLRENDFIIIELDRQELT [E15I],2.45
20,VRIQNPSLRENDFILIELDRQELT [E15L],2.25
21,VRIQNPSLRENDFIAIELDRQELT [E15A],2.38
22,VRIQNPSLRENDFIHIELDRQELT [E15H],2.94
23,VRIQNPSLRENDFISIELDRQELT [E15S],2.02
24,VRIQNPSLRENDFIDIELDRQELT [E15D],2.95

row,Variant,protein stability index
1,VRIQNPSLRENDFIYIELDRQELT [E15Y],2.04
2,VRIQNPSLRENDFIPIELDRQELT [E15P],3.49
3,VRIQNPSLRENDFITIELDRQELT [E15T],2.27
4,VRIQNPSLRENDFIEIYLDRQELT [E17Y],2.22
5,VRIQNPSLRENDFIEIKLDRQELT [E17K],2.27
6,VRIQNPSLRENDFIEINLDRQELT [E17N],2.66
7,VRIQNPSLRENDFIEIVLDRQELT [E17V],1.35
8,VRIQNPSLRENDFIEIILDRQELT [E17I],1.97
9,VRIQNPSLRENDFIEIRLDRQELT [E17R],2.14
10,VRIQNPSLRENDFIEICLDRQELT [E17C],1.65
11,VRIQNPSLRENDFIEIDLDRQELT [E17D],2.7
12,VRIQNPSLRENDFIEIPLDRQELT [E17P],3.44
13,VRIQNPSLRENDFIEIWLDRQELT [E17W],1.85
14,VRIQNPSLRENDFIEILLDRQELT [E17L],1.98
15,VRIQNPSLRENDFIEIFLDRQELT [E17F],1.93
16,VRIQNPSLRENDFIEIMLDRQELT [E17M],1.81
17,VRIQNPSLRENDFIEITLDRQELT [E17T],1.86
18,VRIQNPSLRENDFIEIHLDRQELT [E17H],2.62
19,VRIQNPSLRENDFIEIGLDRQELT [E17G],3.22
20,VRIQNPSLRENDFIEIQLDRQELT [E17Q],1.96
21,VRIQNPSLRENDFIEIALDRQELT [E17A],2.47
22,VRIQNPSLRENDFIEISLDRQELT [E17S],2.15
